Biological target: SOD1-His ( (human or mouse cDNA cloned), UniProt P00441 1-154)
Assay: cell-based or functional assay

SOD1-His, sequence (P00441 whole entry): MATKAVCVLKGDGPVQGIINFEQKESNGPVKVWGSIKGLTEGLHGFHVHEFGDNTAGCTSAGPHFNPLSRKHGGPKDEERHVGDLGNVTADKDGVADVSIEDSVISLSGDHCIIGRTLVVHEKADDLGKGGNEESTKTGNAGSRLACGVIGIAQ

- SOD1 activity of purified SOD1 after 15 h incubation with purified YWHAZ at ratios 1:1 and 1:3 (1 SOD1 to 3 YWHAZ protein amount); value at 1:3: ~2 fold
B1: YWHAZ-His (natural protein, UniProt P63104 1-245, looked up)
chain: MDKNELVQKAKLAEQAERYDDMAACMKSVTEQGAELSNEERNLLSVAYKNVVGARRSSWRVVSSIEQKTEGAEKKQQMAREYREKIETELRDICNDVLSLLEKFLIPNASQAESKVFYLKMKGDYYRYLAEVAAGDDKKGIVDQSQQAYQEAFEISKKEMQPTHPIRLGLALNFSVFYYEILNSPEKACSLAKTAFDEAIAELDTLSEESYKDSTLIMQLLRDNLTLWTSDTQGDEAEAGEGGEN
